# Laboratory results reported in patent US20220002427A1 (ENGMAB SARL, published 2022).
# Numbering of substitutions follows the chain as printed. Several values for one entry are separate records, joined by “and”; a condition that tells them apart may be missing. Identical values can stand only once.
# T1: human BCMA on cells (human, UniProt Q02223 1-184)
# T1 construct: whole, on cells; also called huBCMA on HEK cells; HEK-huBCMA cells
# T1 sequence (looked up): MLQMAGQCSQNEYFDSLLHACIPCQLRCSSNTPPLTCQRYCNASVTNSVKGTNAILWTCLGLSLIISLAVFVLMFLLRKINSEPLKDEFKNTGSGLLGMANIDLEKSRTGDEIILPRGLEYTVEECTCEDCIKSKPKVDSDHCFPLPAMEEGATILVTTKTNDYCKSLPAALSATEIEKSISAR
# B1: 21-TCBcv (bispecific antibody, human IgG1, kappa, L234A L235A)
# heavy 1: not shown
# heavy 2: EVQLLESGGGLVQPGGSLRLSCAASGFTFSDNAMGWVRQAPGKGLEWVSAISGPGSSTYYADSVKGRFTISRDNSKNTLYLQMNSLRAEDTAVYYCAKVLGWFDYWGQGTLVTVSSASTKGPSVFPLAPSSKSTSGGTAALGCLVEDYFPEPVTVSWNSGALTSGVHTFPAVLQSSGLYSLSSVVTVPSSSLGTQTYICNVNHKPSNTKVDEKVEPKSCDKTHTCPPCPAPEAAGGPSVFLFPPKPKDTLMISRTPEVTCVVVDVSHEDPEVKFNWYVDGVEVHNAKTKPREEQYNSTYRVVSVLTVLHQDWLNGKEYKCKVSNKALGAPIEKTISKAKGQPREPQVCTLPPSRDELTKNQVSLSCAVKGFYPSDIAVEWESNGQPENNYKTTPPVLDSDGSFFLVSKLTVDKSRWQQGNVFSCSVMHEALHNHYTQKSLSLSPGK
# light 1: EIVLTQSPGTLSLSPGERATLSCRASQSVSEYYLAWYQQKPGQAPRLLIEHASTRATGIPDRFSGSGSGTDFTLTISRLEPEDFAVYYCQQYGYPPDFTFGQGTKVEIKRTVAAPSVFIFPPSDRKLKSGTASVVCLLNNFYPREAKVQWKVDNALQSGNSQESVTEQDSKDSTYSLSSTLTLSKADYEKHKVYACEVTHQGLSSPVTKSFNRGEC
# light 2: EVQLLESGGGLVQPGGSLRLSCAASGFTFSTYAMNWVRQAPGKGLEWVSRIRSKYNNYATYYADSVKGRFTISRDDSKNTLYLQMNSLRAEDTAVYYCVRHGNFGNSYVSWFAYWGQGTLVTVSSASVAAPSVFIFPPSDEQLKSGTASVVCLLNNFYPREAKVQWKVDNALQSGNSQESVTEQDSKDSTYSLSSTLTLSKADYEKHKVYACEVTHQGLSSPVTKSFNRGEC
# notes: also called anti-BCMA/anti-CD3 T cell bispecific antibody of Mab21
# B2: 22-TCBcv (bispecific antibody, human IgG1, kappa, L234A L235A)
# heavy 1: not shown
# heavy 2: B1 heavy 2
# light 1: B1 light 1 with E31S, E50S, H51G, S53G, T54S
# light 2: B1 light 2
# notes: also called 22-TCVcv; anti-BCMA/anti-CD3 T cell bispecific antibody of Mab22
# Experiments:
# human BCMA on cells [1] = target: T1, human BCMA on cells; experiment: flow cytometry on RPMI-8226 multiple myeloma cells, PE anti-human Fc F(ab')2 detection; estimated EC50
# Description: (§1) Briefly, cultured cells are harvested, counted and cell viability was evaluated using ViCell. Viable cells are then adjusted to 2×10⁶ cells per ml in BSA-containing FACS Stain Buffer (BD Biosciences). 100 μl of this cell suspension were further aliquoted per well into a round-bottom 96-well plate and incubated with 30 μl of the anti-BCMA antibodies or corresponding IgG control for 30 min at 4° c. All Anti-BCMA/anti-CD3 TCB antibodies (and TCB controls) were titrated and analyzed in final concentration range between 1-300 nM. Cells were then centrifuged (5 min, 350×g), washed with 120 μl/well FACS Stain Buffer (BD Biosciences), resuspended and incubated for an additional 30 min at 4° C. with fluorochrome-conjugated PE-conjugated AffiniPure F(ab′)2 Fragment goat anti-human IgG Fc Fragment Specific (Jackson Immuno Research Lab; 109-116-170). Cells were then washed twice with Stain Buffer (BD Biosciences), fixed using 100 ul BD Fixation buffer per well (#BD Biosciences, 554655) at 4° C. for 20 min, resuspended in 120 μl FACS buffer and analyzed using BD FACS CantoII.
# human BCMA on cells [2] = target: T1, human BCMA on cells; experiment: cell-based or functional assay
# human BCMA on cells [3] = target: T1, human BCMA on cells; experiment: flow cytometry on H929 multiple myeloma cells, PE anti-human Fc F(ab')2 detection; estimated EC50
# Description: as §1
# human BCMA on cells [4] = target: T1, human BCMA on cells; experiment: cell-based or functional assay; remark: listed apart in the source
# human BCMA on cells [5] = target: T1, human BCMA on cells; experiment: cell-based or functional assay; remark: listed apart in the source
# human BCMA on cells [6] = target: T1, human BCMA on cells; experiment: flow cytometry on L363 multiple myeloma cells, PE anti-human Fc F(ab')2 detection; estimated EC50
# Description: as §1
# human BCMA on cells [7] = target: T1, human BCMA on cells; experiment: cell-based or functional assay; remark: listed apart in the source
# human BCMA on cells [8] = target: T1, human BCMA on cells; experiment: cell-based or functional assay; remark: listed apart in the source
binder,measurement,setting,value
B1,EC50,human BCMA on cells [1],6.8 nM and 0.982 µg/mL
same,"EC50 of redirected T-cell killing of RPMI-8226 cells (LDH release), Donor 2",human BCMA on cells [2],0.0413 nM
same,"EC50 of redirected T-cell killing of RPMI-8226 cells (LDH release), Donor 3",human BCMA on cells [2],0.0088 nM
same,"EC50 of redirected T-cell killing of RPMI-8226 cells (LDH release), Donor 4",human BCMA on cells [2],0.004 nM
same,"EC50 of redirected T-cell killing of RPMI-8226 cells (LDH release), Donor 5",human BCMA on cells [2],0.0084 nM
same,EC50,human BCMA on cells [3],11 nM and 1.59 µg/mL
same,"EC50 of redirected T-cell killing of L363 cells (LDH release), Donor 1",human BCMA on cells [4],0.0836 nM
same,"EC50 of redirected T-cell killing of L363 cells (LDH release), Donor 2",human BCMA on cells [4],0.0384 nM
same,"EC50 of redirected T-cell killing of L363 cells (LDH release), Donor 3",human BCMA on cells [4],0.0189 nM
same,"EC50 of redirected T-cell killing of L363 cells (LDH release), Donor 4",human BCMA on cells [4],0.0191 nM
same,"EC50 of redirected T-cell killing of L363 cells (LDH release), Donor 5",human BCMA on cells [4],0.0464 nM
same,"EC50 of redirected T-cell killing of H929 cells (LDH release), Donor 1",human BCMA on cells [5],0.0971 nM
same,"EC50 of redirected T-cell killing of H929 cells (LDH release), Donor 3",human BCMA on cells [5],0.0421 nM
same,"EC50 of redirected T-cell killing of H929 cells (LDH release), Donor 4",human BCMA on cells [5],0.0539 nM
same,"EC50 of redirected T-cell killing of H929 cells (LDH release), Donor 5",human BCMA on cells [5],0.0387 nM
B2,EC50,human BCMA on cells [6],30 nM and 4.33 µg/mL
same,"Lysis of JJN-3 cells (%) at 0.1 pM TCB, Experiment 2",human BCMA on cells [7],36.5%
same,"Lysis of JJN-3 cells (%) at 1 pM TCB, Experiment 1",human BCMA on cells [7],-4.29%
same,"Lysis of JJN-3 cells (%) at 1 pM TCB, Experiment 2",human BCMA on cells [7],24.4%
same,"Lysis of JJN-3 cells (%) at 10 pM TCB, Experiment 1",human BCMA on cells [7],73.6%
same,"Lysis of JJN-3 cells (%) at 10 pM TCB, Experiment 2",human BCMA on cells [7],41.7%
same,"Lysis of JJN-3 cells (%) at 100 pM TCB, Experiment 1",human BCMA on cells [7],56.3%
same,"Lysis of JJN-3 cells (%) at 100 pM TCB, Experiment 2",human BCMA on cells [7],53%
same,"Lysis of JJN-3 cells (%) at 1000 pM TCB, Experiment 1",human BCMA on cells [7],90.5%
same,"Lysis of JJN-3 cells (%) at 1000 pM TCB, Experiment 2",human BCMA on cells [7],94.1%
same,"Lysis of JJN-3 cells (%) at 10000 pM TCB, Experiment 1",human BCMA on cells [7],88%
same,"Lysis of JJN-3 cells (%) at 10000 pM TCB, Experiment 2",human BCMA on cells [7],91.2%
same,"EC50 of redirected T-cell killing of RPMI-8226 cells (LDH release), Donor 2",human BCMA on cells [2],0.0476 nM
same,"EC50 of redirected T-cell killing of RPMI-8226 cells (LDH release), Donor 3",human BCMA on cells [2],0.0076 nM
same,"EC50 of redirected T-cell killing of RPMI-8226 cells (LDH release), Donor 4",human BCMA on cells [2],0.0032 nM
same,"EC50 of redirected T-cell killing of RPMI-8226 cells (LDH release), Donor 5",human BCMA on cells [2],0.0055 nM
same,EC50,human BCMA on cells [3],7.9 nM and 1.14 µg/mL
same,"Annexin-V positive JJN-3 cells (%) at 0.1 pM TCB, Experiment 2",human BCMA on cells [8],14.8%
same,"Annexin-V positive JJN-3 cells (%) at 1 pM TCB, Experiment 1",human BCMA on cells [8],9.3%
same,"Annexin-V positive JJN-3 cells (%) at 1 pM TCB, Experiment 2",human BCMA on cells [8],15%
same,"Annexin-V positive JJN-3 cells (%) at 10 pM TCB, Experiment 1",human BCMA on cells [8],13.3%
same,"Annexin-V positive JJN-3 cells (%) at 10 pM TCB, Experiment 2",human BCMA on cells [8],15.9%
same,"Annexin-V positive JJN-3 cells (%) at 100 pM TCB, Experiment 1",human BCMA on cells [8],12.5%
same,"Annexin-V positive JJN-3 cells (%) at 100 pM TCB, Experiment 2",human BCMA on cells [8],18.4%
same,"Annexin-V positive JJN-3 cells (%) at 1000 pM TCB, Experiment 1",human BCMA on cells [8],26.1%
same,"Annexin-V positive JJN-3 cells (%) at 1000 pM TCB, Experiment 2",human BCMA on cells [8],27%
same,"Annexin-V positive JJN-3 cells (%) at 10000 pM TCB, Experiment 1",human BCMA on cells [8],22.9%
same,"Annexin-V positive JJN-3 cells (%) at 10000 pM TCB, Experiment 2",human BCMA on cells [8],29.7%
same,"EC50 of redirected T-cell killing of L363 cells (LDH release), Donor 1",human BCMA on cells [4],0.0975 nM
same,"EC50 of redirected T-cell killing of L363 cells (LDH release), Donor 2",human BCMA on cells [4],0.0277 nM
same,"EC50 of redirected T-cell killing of L363 cells (LDH release), Donor 3",human BCMA on cells [4],0.0165 nM
same,"EC50 of redirected T-cell killing of L363 cells (LDH release), Donor 4",human BCMA on cells [4],0.0146 nM
same,"EC50 of redirected T-cell killing of L363 cells (LDH release), Donor 5",human BCMA on cells [4],0.056 nM
same,"EC50 of redirected T-cell killing of H929 cells (LDH release), Donor 1",human BCMA on cells [5],0.0532 nM
same,"EC50 of redirected T-cell killing of H929 cells (LDH release), Donor 3",human BCMA on cells [5],0.0422 nM
same,"EC50 of redirected T-cell killing of H929 cells (LDH release), Donor 4",human BCMA on cells [5],0.0232 nM
same,"EC50 of redirected T-cell killing of H929 cells (LDH release), Donor 5",human BCMA on cells [5],0.0289 nM
